{"source": "patent US20180371076A1", "about": "“MATERNAL TH17 CELLS AND PSYCHIATRIC DISORDERS” (New York University, priority 2017, published 2018)", "key": {"[1]": {"test_system": "cortex of the fetal brain", "assay": "Cortical development: SATB2/TBR1/CTIP2 immunohistochemistry of fetal and adult offspring brain", "type": "in vivo, mouse", "protocol": "Immunohistochemistry. Animals were transcardially perfused with 4% paraformaldehyde in PBS under Ketamine/xylazine anesthesia. The brains were removed and sectioned at 100-μm thickness with a Leica VT1000S vibratome (Leica, USA). Slices were permeabilized with blocking solution containing 0.4% Triton X-100, 2% goat serum, and 1% BSA in PBS for 1 hr at room temperature, and then incubated with anti-TBR1 (ab31940, Abcam), anti-SATB2 (ab51502, Abcam) and anti-CTIP2 (ab18465, Abcam) antibodies overnight at 4° C. The following day, slices were incubated with fluorescently conjugated secondary antibodies (Invitrogen, USA) for 1 h at room temperature, and mounted in vectashield mounting medium with DAPI (Vector laboratories). Images of stained brain slices were acquired using a confocal microscope (LSM710; Carl Zeiss) with a 20× objective lens; all image settings were kept constant.\nIntraventricular cytokine injection At E14.5, uterine horns of pregnant mice were exposed by a caudal ventral midline incision (<2 cm). Each uterine horn was exteriorized carefully and each fetus was identified. Recombinant mouse IL-17a cytokine (R&D, 0.6 μL of 2 ng/μL), IL-6 (R&D, 0.6 μL of 10 ng/μL) or saline together with the dye Fast Green (Sigma, 0.3 mg/mL) was injected (3-4 μL) into the third ventricle of each embryo by a pulled micropipette. After injection of all embryos, the uterus was replaced within the abdomen and the cavity was lavaged with warm sterile saline.\nImmunohistochemistry Fetal brains of male embryos were dissected and fixed with 4% paraformaldehyde in PBS for 6 h at 4° C. Adult brains of male offspring were perfused and fixed with 4% paraformaldehyde in PBS for overnight at 4° C. The brains were removed and sectioned at 50-μm thickness with a Leica VT1000S vibratome (Leica, USA). Slices were permeabilized with blocking solution containing 0.4% Triton X-100, 2% goat serum, and 1% BSA in PBS for 1 h at room temperature, and then incubated with anti-TBR1 (ab31940, Abcam), anti-SATB2 (ab51502, Abcam), and anti-CTIP2 (ab18465, Abcam) antibodies overnight at 4° C. The following day, slices were incubated with fluorescently conjugated secondary antibodies (Invitrogen, USA) for 1 h at room temperature, and mounted in vectashield mounting medium with DAPI (Vector laboratories). Images of stained brain slices were acquired using a confocal microscope (LSM710; Carl Zeiss) with a 20× objective lens; all image settings were kept constant. Spatial locations of the patches were registered based on their distance from the midline of the brain. These cortical malformations were quantified using cropped images containing the malformations, or the corresponding region in WT brains. The region of interest (300×300 μm^2) was divided into 10 equal laminar blocks representing different depths of the cortical plate. SATB2-, TBR1-, or […] cells were counted using Image J software. Signal intensity in each image was normalized relative to the total signal intensity."}, "[2]": {"test_system": "offspring of pregnant mice (MIA mouse model)", "assay": "Ultrasonic vocalization (USV) assay in pups, MIA mouse model", "type": "in vivo", "protocol": "Maternal Immune Activation. Mice were mated overnight and females were checked daily for the presence of seminal plugs, noted as embryonic day 0.5 (E0.5). On E12.5, pregnant female mice were weighed and injected with a single dose (20 mg/kg; i.p.) of poly(I:C) (Sigma Aldrich) or PBS vehicle. Each dam was returned to its cage and left undisturbed until the birth of its litter. All pups remained with the mother until weaning on postnatal day 21 (P21), at which time mice were group housed at maximum 5 per cage with same-sex littermates. For the IL-17 cytokine blockade experiment, monoclonal IL-17a blocking antibody (clone 50104; R&D) or isotype control antibody (IgG2a, clone 54447; R&D) was administered 6 h before maternal immune activation (FIG. 2) via i.p. route (500 μg/animal) or 2 days after maternal immune activation (FIG. 5) via i.p. route (500 μg/animal).\nUltrasonic vocalizations. On postnatal day 9, mice were removed from the nest and placed in a 15-cm diameter dish in a sound-attenuated chamber. Mouse ultrasonic vocalizations (USVs) were detected for 3 min using an UltraSoundGateCM16/CMPA microphone (AviSoft) in the chamber under stable temperature and light control, and recorded with SAS Prolab software (AviSoft). For certain USV tests, Ultravox software (Noldus information Technology, USA) was used. An amplitude filter was used to eliminate extraneous peripheral noise (i.e. HVAC). Due to the unreliability of automated USV scoring, all pup USVs were measured and confirmed manually by observers blind to the experimental conditions.\nMaternal Immune Activation Mice were mated overnight and females were checked daily for the presence of seminal plugs, noted as embryonic day 0.5 (E0.5). On E12.5, pregnant female mice were weighed and injected with a single dose (20 mg/kg; i.p.) of poly(I:C) (Sigma Aldrich) or PBS vehicle. Each dam was returned to its cage and left undisturbed until the birth of its litter. All pups remained with the mother until weaning on postnatal day 21 (P21), at which time mice were group housed at maximum 5 per cage with same-sex littermates. For the IL-17 cytokine blockade experiment, monoclonal IL-17a blocking antibody (clone 50104; R&D) or isotype control antibody (IgG2a, clone 54447; R&D) were administered 6 h before maternal immune activation via i.p. route (500 μg/animal). For IL-6 cytokine injection into pregnant dams, carrier-free recombinant mouse IL-6 (R&D) was administered as a single dose (10 μg/animal; i.p.). For testing anti-IL17a therapeutic effects, IL-17a blocking antibody or isotype control antibody (as described above) was administered 2 days after maternal immune activation (500 μg/animal; i.p.).\nUltrasonic vocalizations On postnatal day 7-9, both male and female mice were removed from the nest and habituated to the testing room for 15 minutes (separate of dam). After the habituation period, mouse pups were placed in a clean 15 cm glass pyrex high wall dish. Mouse pup ultrasonic vocalizations (USVs) were then detected for 3 min using an UltraSoundGateCM16/CMPA microphone (AviSoft) in the sound attenuation chamber under stable temperature and light control (15 lux), and recorded with SAS Prolab software (AviSoft). USVs were measured between 33-125 kHz. USVs were scored as contiguous if gaps between vocalizations were <0.02 msec. For certain USV tests, Ultravox software (Noldus information Technology, USA) was used. An amplitude filter was used to eliminate extraneous peripheral noise (i.e. HVAC). Due to the unreliability of automated USV scoring, all pup USVs were measured and confirmed manually by observers blind to the experimental conditions.\nIntraventricular cytokine injection At E14.5, uterine horns of pregnant mice were exposed by a caudal ventral midline incision (<2 cm). Each uterine horn was exteriorized carefully and each fetus was identified. […]"}, "[3]": {"settings": "injection into pregnant WT mothers (10 μg/animal; i.p.)"}}}
{"molecule": "poly(I:C)", "values": [{"measurement": "cortical thickness of the fetal brains at E18.5", "setting": "[1]; MIA (poly(I:C))", "value": "did not affect cortical thickness"}, {"measurement": "cortical cytoarchitecture at E18.5", "setting": "[1]; MIA (poly(I:C)) vs PBS", "value": "patch of disorganized cortical cytoarchitecture"}, {"measurement": "SATB2 and SATB2/TBR1 expression in fetal brain cortical plates at E14.5 and E18.5", "setting": "[1]; MIA (poly(I:C)) vs control", "value": "abnormal expression"}, {"measurement": "SATB2 expression at E14.5", "setting": "[1]; MIA (poly(I:C)) vs control", "value": "delayed expression of SATB2"}, {"measurement": "abnormal expression of SATB2, TBR1 and CTIP2 in adult offspring", "setting": "[1]; MIA adult offspring (P60)", "value": "maintained"}, {"measurement": "number of pup USV calls", "setting": "[2]; poly(I:C)-injected mothers pretreated with control antibody, vs PBS-injected mothers", "value": "emitted more USV calls"}]}
{"molecule": "recombinant IL-6: carrier-free recombinant mouse IL-6 (R&D) (protein, UniProt P08505 25-211, looked up) Interleukin-6: FPTSQVRRGDFTEDTTPNRPVYTTSQVGGLITHVLWEIVEMRKELCNGNSDCMNNDDALAENNLKLPEIQRNDGCYQTGYNQEICLLKISSGLLEYHSYLEYMKNNLKDNKKDKARVLQRDTETLIHIFNQEVKDLHKIVLPTPISNALLTDKLESQKEWLRTKTIQFILKSLEEFLKVTLRSTRQT", "values": [{"measurement": "cortical phenotype in offspring", "setting": "[1]; [3]", "value": "sufficient to produce MIA-associated behavioral (enhanced USV) and cortical phenotypes"}, {"measurement": "USV phenotype", "setting": "[2]; injection into WT fetal brains at E14.5", "value": "nor enhanced USV phenotypes were observed"}, {"measurement": "USV phenotype in offspring", "setting": "[2]; [3]", "value": "enhanced USV"}]}
{"molecule": "recombinant IL-17a protein: Recombinant mouse IL-17a cytokine (R&D), injected into the fetal brain ventricle (protein, UniProt Q62386 26-158, looked up) Interleukin-17A: AAIIPQSSACPNTEAKDFLQNVKVNLKVFNSLGAKVSSRRPSDYLNRSTSPWTLHRNEDPDRYPSVIWEAQCRHQRCVNAEGKLDHHMNSVLIQQEILVLKREPESCPFTFRVEKMLVGVGCTCVASIVRQAA", "values": [{"measurement": "cortical organization (SATB2, TBR1) at E18.5", "setting": "[1]; injected into the ventricles of the fetal brain at E14.5 in the absence of MIA", "value": "appearance of disorganized cortical patches"}, {"measurement": "thickness of the cortical plate at E18.5", "setting": "[1]; intra-ventricular injection at E14.5", "value": "thinned cortical plates at the medial but not lateral part of the brain"}, {"measurement": "pup USVs", "setting": "[2]; injection into brains of fetuses from poly(I:C)-injected IL-6 KO mothers, vs PBS-injected controls", "value": "increased pup USVs"}, {"measurement": "USV phenotype", "setting": "[2]; injection into the ventricles of IL-17Ra KO fetuses", "value": "nor enhanced USV phenotypes were observed"}, {"measurement": "USV phenotype", "setting": "[2]; intra-ventricular injection at E14.5, compared with sham injection", "value": "enhanced USV phenotype"}]}
